B1: ACOT8, O14734 (peptide)
chain: VKPQVSESKL
B2: PDGFRB, P09619 (peptide)
chain: PRAEAEDSFL
B3: SDC4, P31431 (peptide)
chain: KKAPTNEFYA
B4: CLDN2, P57739 (peptide)
chain: FNSYSLTGYV

How the values were obtained:
Test in all cases: holdup assay
Set-up in all cases: key: below the threshold = too weak to quantify, mostly under pKd 3.1 to 4
Conditions in all cases: plain residues with an end cap or a label only (N-terminal biotin on a linker: ado-ado)
ARHGEF11, O15085 = target: T1, ARHGEF11, O15085
T1 sequence (O15085 42-136, limits assumed, looked up): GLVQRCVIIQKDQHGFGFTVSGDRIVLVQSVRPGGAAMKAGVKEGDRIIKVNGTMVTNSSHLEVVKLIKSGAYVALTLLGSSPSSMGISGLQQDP

ARHGEF12, Q9NZN5-2 = target: ARHGEF12, Q9NZN5-2
Chain of ARHGEF12, Q9NZN5-2 (Q9NZN5 other isoform, or with tags, fused parts or gaps): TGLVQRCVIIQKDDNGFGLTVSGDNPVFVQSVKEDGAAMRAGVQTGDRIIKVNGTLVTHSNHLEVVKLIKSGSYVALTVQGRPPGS

DLG2_2, Q15700 = target: DLG2_2, Q15700
Chain of DLG2_2, Q15700 (Q15700 189-283): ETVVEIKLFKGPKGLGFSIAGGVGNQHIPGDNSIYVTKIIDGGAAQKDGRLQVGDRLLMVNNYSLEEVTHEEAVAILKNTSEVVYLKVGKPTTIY

HTRA3, P83110 = target: T2, HTRA3, P83110
T2 sequence (P83110 354-453, limits assumed, looked up): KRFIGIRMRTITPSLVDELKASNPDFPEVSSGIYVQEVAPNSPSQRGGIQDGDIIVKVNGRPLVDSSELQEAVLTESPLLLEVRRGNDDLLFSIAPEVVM

HTRA4, P83105 = target: T3, HTRA4, P83105
T3 sequence (P83105 378-476, limits assumed, looked up): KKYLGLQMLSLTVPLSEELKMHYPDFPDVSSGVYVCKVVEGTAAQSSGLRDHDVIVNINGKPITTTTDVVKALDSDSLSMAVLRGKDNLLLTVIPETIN

IL16_1, Q14005 = target: IL16_1, Q14005
Chain of IL16_1, Q14005 (Q14005 210-306): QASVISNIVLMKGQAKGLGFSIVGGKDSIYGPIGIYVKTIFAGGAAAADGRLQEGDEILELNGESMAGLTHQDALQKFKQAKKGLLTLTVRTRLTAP

Inadl_3, Q8NI35 = target: Inadl_3, Q8NI35
Chain of Inadl_3, Q8NI35 (Q8NI35 359-469): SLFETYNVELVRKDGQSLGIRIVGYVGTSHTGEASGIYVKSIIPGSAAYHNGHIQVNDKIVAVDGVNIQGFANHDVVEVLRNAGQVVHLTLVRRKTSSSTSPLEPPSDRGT

Inadl_4, Q8NI35 = target: Inadl_4, Q8NI35
Chain of Inadl_4, Q8NI35 (Q8NI35 547-651): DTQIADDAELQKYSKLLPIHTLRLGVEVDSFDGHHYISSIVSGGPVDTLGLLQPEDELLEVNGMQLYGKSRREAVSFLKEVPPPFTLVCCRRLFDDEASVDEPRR

Inadl_9, Q8NI35 = target: Inadl_9, Q8NI35
Chain of Inadl_9, Q8NI35 (Q8NI35 1530-1615): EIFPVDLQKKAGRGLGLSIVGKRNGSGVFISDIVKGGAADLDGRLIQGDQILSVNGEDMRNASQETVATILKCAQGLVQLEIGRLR

LNX2_3, Q8N448 = target: T4, LNX2_3, Q8N448
T4 sequence (Q8N448 463-564, limits assumed, looked up): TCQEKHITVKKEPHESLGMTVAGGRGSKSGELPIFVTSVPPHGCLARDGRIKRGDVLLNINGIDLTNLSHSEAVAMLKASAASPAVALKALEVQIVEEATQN

MAGI2_5, Q86UL8 = target: MAGI2_5, Q86UL8
Chain of MAGI2_5, Q86UL8 (Q86UL8 915-1017): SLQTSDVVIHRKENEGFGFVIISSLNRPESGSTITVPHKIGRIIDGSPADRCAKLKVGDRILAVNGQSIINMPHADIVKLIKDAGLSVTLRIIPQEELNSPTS

MAST1, Q9Y2H9 = target: MAST1, Q9Y2H9
Chain of MAST1, Q9Y2H9 (Q9Y2H9 962-1065): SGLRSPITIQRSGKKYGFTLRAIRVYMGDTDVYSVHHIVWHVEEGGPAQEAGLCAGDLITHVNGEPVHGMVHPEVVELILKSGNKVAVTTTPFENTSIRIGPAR

MPP7, Q5T2T1 = target: T5, MPP7, Q5T2T1
T5 sequence (Q5T2T1 134-230, limits assumed, looked up): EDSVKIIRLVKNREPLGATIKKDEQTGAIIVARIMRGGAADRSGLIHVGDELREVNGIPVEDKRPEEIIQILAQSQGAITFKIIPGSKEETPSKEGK

NHERF2_2, Q15599 = target: NHERF2_2, Q15599
Chain of NHERF2_2, Q15599 (Q15599 142-238): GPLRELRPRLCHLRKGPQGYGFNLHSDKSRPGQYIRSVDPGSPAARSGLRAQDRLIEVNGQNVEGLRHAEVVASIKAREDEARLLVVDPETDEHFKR

NHERF4_1, Q86UT5-2 = target: NHERF4_1, Q86UT5-2
Chain of NHERF4_1, Q86UT5-2 (Q86UT5 other isoform, or with tags, fused parts or gaps): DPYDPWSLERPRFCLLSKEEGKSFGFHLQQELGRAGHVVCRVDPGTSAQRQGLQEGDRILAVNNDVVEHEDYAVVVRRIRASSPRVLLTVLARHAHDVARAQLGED

NOS1, P29475 = target: NOS1, P29475
Chain of NOS1, P29475 (P29475 9-101): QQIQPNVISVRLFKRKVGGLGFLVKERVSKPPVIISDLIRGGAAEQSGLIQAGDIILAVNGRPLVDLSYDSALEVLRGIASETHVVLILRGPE

PARD3B_1, Q8TEW8 = target: T6, PARD3B_1, Q8TEW8
T6 sequence (Q8TEW8 196-299, limits assumed, looked up): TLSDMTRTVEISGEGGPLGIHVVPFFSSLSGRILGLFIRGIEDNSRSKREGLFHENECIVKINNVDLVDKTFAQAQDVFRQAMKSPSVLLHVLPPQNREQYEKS

PARD3_3, Q8TEW0 = target: PARD3_3, Q8TEW0
Chain of PARD3_3, Q8TEW0 (Q8TEW0 582-685): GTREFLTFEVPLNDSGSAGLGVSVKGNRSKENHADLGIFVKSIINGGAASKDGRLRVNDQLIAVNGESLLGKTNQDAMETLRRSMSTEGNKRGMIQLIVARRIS

PCLO, Q9Y6V0 = target: T7, PCLO, Q9Y6V0
T7 sequence (Q9Y6V0 4491-4600, limits assumed, looked up): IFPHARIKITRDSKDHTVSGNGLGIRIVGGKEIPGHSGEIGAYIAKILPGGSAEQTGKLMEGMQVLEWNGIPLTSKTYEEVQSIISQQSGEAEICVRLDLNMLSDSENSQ

SCRIB_2, Q14160 = target: SCRIB_2, Q14160
Chain of SCRIB_2, Q14160 (Q14160 857-960): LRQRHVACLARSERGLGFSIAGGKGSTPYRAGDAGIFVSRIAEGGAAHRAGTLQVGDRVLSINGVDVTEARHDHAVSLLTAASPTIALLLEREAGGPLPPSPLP

SIPA1L2, Q9P2F8 = target: T8, SIPA1L2, Q9P2F8
T8 sequence (Q9P2F8 945-1036, limits assumed, looked up): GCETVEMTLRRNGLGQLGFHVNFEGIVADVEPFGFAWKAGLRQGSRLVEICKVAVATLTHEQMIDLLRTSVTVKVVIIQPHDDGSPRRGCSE

SNTA1, Q13424 = target: T9, SNTA1, Q13424
T9 sequence (Q13424 82-180, limits assumed, looked up): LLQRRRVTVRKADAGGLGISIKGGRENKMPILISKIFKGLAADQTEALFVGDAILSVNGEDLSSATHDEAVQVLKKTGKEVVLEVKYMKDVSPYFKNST

SNTG1, Q9NSN8 = target: T10, SNTG1, Q9NSN8
T10 sequence (Q9NSN8 52-150, limits assumed, looked up): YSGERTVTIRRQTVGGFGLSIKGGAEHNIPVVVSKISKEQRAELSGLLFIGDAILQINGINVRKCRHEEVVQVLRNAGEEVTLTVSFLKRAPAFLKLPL

SNTG2, Q9NY99 = target: T11, SNTG2, Q9NY99
T11 sequence (Q9NY99 68-166, limits assumed, looked up): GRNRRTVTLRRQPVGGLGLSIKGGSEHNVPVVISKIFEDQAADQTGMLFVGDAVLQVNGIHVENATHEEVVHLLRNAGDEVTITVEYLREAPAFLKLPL

SYNJ2BP, P57105 = target: T12, SYNJ2BP, P57105
T12 sequence (P57105 8-110, limits assumed, looked up): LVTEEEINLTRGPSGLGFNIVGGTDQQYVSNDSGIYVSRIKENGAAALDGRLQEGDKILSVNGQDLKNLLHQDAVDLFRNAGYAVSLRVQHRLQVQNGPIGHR

TJP1_2, Q07157 = target: TJP1_2, Q07157
Chain of TJP1_2, Q07157 (Q07157 181-274): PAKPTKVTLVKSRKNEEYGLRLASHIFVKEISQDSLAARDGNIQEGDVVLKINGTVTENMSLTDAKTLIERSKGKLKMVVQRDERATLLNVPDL

Binder | pKd (ARHGEF11, O15085) | pKd (ARHGEF12, Q9NZN5-2) | pKd (DLG2_2, Q15700) | pKd (HTRA3, P83110) | pKd (HTRA4, P83105) | pKd (IL16_1, Q14005) | pKd (Inadl_3, Q8NI35) | pKd (Inadl_4, Q8NI35) | pKd (Inadl_9, Q8NI35) | pKd (LNX2_3, Q8N448) | pKd (MAGI2_5, Q86UL8) | pKd (MAST1, Q9Y2H9) | pKd (MPP7, Q5T2T1) | pKd (NHERF2_2, Q15599) | pKd (NHERF4_1, Q86UT5-2) | pKd (NOS1, P29475) | pKd (PARD3B_1, Q8TEW8) | pKd (PARD3_3, Q8TEW0) | pKd (PCLO, Q9Y6V0) | pKd (SCRIB_2, Q14160) | other results
B1 | below the threshold | 4.03 | below the threshold | below the threshold | below the threshold | below the threshold | below the threshold | below the threshold | below the threshold | below the threshold | below the threshold | 4.77 | below the threshold | 4.56 | 3.78 | below the threshold | 3.69 | below the threshold | below the threshold | 3.52 | pKd (SIPA1L2, Q9P2F8): below the threshold; pKd (SNTA1, Q13424): below the threshold; pKd (SNTG1, Q9NSN8): below the threshold; pKd (SNTG2, Q9NY99): 4.19; pKd (SYNJ2BP, P57105): 3.75; pKd (TJP1_2, Q07157): below the threshold
B2 | 3.78 | 3.63 | below the threshold | below the threshold | 3.98 | below the threshold | below the threshold | below the threshold | below the threshold | 3.54 | below the threshold | 3.93 | below the threshold | 5.05 | 3.89 | 3.57 | 4.55 | 4.11 | below the threshold | below the threshold | pKd (SIPA1L2, Q9P2F8): below the threshold; pKd (SNTA1, Q13424): 3.59; pKd (SNTG1, Q9NSN8): below the threshold; pKd (SNTG2, Q9NY99): below the threshold; pKd (SYNJ2BP, P57105): 3.93; pKd (TJP1_2, Q07157): 3.58
B3 | below the threshold | below the threshold | below the threshold | 4.38 | below the threshold | below the threshold | below the threshold | below the threshold | below the threshold | below the threshold | below the threshold | below the threshold | below the threshold | below the threshold | below the threshold | below the threshold | 4.52 | below the threshold | below the threshold | below the threshold | pKd (SIPA1L2, Q9P2F8): below the threshold; pKd (SNTA1, Q13424): below the threshold; pKd (SNTG1, Q9NSN8): below the threshold; pKd (SNTG2, Q9NY99): below the threshold; pKd (SYNJ2BP, P57105): below the threshold; pKd (TJP1_2, Q07157): below the threshold
B4 | 3.94 | 3.84 | below the threshold | 4.6 | 4.08 | 3.8 | 3.57 | below the threshold | below the threshold | below the threshold | below the threshold | 3.94 | below the threshold | below the threshold | 3.9 | below the threshold | 4.42 | 4.04 | below the threshold | below the threshold | pKd (SIPA1L2, Q9P2F8): 3.5; pKd (SNTA1, Q13424): 3.64; pKd (SNTG1, Q9NSN8): below the threshold; pKd (SNTG2, Q9NY99): below the threshold; pKd (SYNJ2BP, P57105): 3.88; pKd (TJP1_2, Q07157): below the threshold
